Here are results for 2 molecules from patent publication US20250144228A1, “NANOBODY-DRUG ADDUCTS AND USES THEREOF” (priority 2022, published 2025).

For test [1], the target named is mouse IgG2b (Mus musculus, UniProt P01837). Format: binding. As to conditions: mouse IgG2b-coated ELISA plates.
For test [2], the target named is T1, PfMSP-1 subunits, full length p190 pro-peptide (Plasmodium falciparum, UniProt Q8I0U8).
T1 construct: the three PfMSP-1 subunits, the full length p190 pro-peptide
Format: binding. As to the method: (§1) FIG. 13A: Schematic of the PfMSP-1 pro-peptide and the four inclusive subunits: p83, p30, p38, and p42. FIG. 13B: Purified anti-p84 B4, anti-p38 B8, anti-p42 A6, and anti-p42 G11 VHHs were biotinylated and these VHHs were incubated with plate bound subunits proteins as indicated. Binding ELISA was detected by using streptavidin-HRP and tetramethylbenzidine (TMB). Data are represented as optical density (OD). Error bars show SEM. FIG. 13C: Western blot of VHHs against the three PfMSP-1 subunits, the full length p190 pro-peptide, and some 3D7 lysates from −38-44 hour 3D7 schizonts. FIG. 13D: Flow cytometry on synchronized ˜38-44 hour 3D7 schizonts using fluorescently (Cy5) labeled VHHs.
(§2) Purified VHH nanobodies were biotinylated and tested for specificity toward isolated MSP-1 subunits. Anti-p83 B4, anti-p38 B8, anti-p42 A6, and anti-p42 G11 VHHs were each incubated with plate-bound p83, p38, p42, and p42, and binding to the plates was detected by an enzyme-linked immunoassay (ELISA) using streptavidin-horseradish peroxidase (HRP) and tetramethylbenzidine (TMB). […] Finally, purified VHHs were tested against live ˜38-44 hour 3D7 schizonts in a flow cytometry assay.

Test [3] deals with PfMSP-1 subunits, full length p190 pro-peptide. It counts as binding, Plasmodium falciparum. As to the method: as §1, §2
In test [4] the test system is P. falciparum merozoite surface protein 1 (MSP-1) subunits p83, p38, p42. In words: ELISA of biotinylated VHHs on plate-bound MSP-1 subunits. It counts as binding, Plasmodium falciparum. As to conditions: streptavidin-HRP and TMB. The procedure: as §1, with “FIGS. 13A-13D: VHH nanobodies bind specifically to Plasmodium falciparum: merozoite surface protein 1 (MSP-1). FIG. 13A:” for “FIG. 13A:”
as §2
On the technique in general: ELISA stands for enzyme-linked immunosorbent assay.

T1 sequence (Q8I0U8 20-1699): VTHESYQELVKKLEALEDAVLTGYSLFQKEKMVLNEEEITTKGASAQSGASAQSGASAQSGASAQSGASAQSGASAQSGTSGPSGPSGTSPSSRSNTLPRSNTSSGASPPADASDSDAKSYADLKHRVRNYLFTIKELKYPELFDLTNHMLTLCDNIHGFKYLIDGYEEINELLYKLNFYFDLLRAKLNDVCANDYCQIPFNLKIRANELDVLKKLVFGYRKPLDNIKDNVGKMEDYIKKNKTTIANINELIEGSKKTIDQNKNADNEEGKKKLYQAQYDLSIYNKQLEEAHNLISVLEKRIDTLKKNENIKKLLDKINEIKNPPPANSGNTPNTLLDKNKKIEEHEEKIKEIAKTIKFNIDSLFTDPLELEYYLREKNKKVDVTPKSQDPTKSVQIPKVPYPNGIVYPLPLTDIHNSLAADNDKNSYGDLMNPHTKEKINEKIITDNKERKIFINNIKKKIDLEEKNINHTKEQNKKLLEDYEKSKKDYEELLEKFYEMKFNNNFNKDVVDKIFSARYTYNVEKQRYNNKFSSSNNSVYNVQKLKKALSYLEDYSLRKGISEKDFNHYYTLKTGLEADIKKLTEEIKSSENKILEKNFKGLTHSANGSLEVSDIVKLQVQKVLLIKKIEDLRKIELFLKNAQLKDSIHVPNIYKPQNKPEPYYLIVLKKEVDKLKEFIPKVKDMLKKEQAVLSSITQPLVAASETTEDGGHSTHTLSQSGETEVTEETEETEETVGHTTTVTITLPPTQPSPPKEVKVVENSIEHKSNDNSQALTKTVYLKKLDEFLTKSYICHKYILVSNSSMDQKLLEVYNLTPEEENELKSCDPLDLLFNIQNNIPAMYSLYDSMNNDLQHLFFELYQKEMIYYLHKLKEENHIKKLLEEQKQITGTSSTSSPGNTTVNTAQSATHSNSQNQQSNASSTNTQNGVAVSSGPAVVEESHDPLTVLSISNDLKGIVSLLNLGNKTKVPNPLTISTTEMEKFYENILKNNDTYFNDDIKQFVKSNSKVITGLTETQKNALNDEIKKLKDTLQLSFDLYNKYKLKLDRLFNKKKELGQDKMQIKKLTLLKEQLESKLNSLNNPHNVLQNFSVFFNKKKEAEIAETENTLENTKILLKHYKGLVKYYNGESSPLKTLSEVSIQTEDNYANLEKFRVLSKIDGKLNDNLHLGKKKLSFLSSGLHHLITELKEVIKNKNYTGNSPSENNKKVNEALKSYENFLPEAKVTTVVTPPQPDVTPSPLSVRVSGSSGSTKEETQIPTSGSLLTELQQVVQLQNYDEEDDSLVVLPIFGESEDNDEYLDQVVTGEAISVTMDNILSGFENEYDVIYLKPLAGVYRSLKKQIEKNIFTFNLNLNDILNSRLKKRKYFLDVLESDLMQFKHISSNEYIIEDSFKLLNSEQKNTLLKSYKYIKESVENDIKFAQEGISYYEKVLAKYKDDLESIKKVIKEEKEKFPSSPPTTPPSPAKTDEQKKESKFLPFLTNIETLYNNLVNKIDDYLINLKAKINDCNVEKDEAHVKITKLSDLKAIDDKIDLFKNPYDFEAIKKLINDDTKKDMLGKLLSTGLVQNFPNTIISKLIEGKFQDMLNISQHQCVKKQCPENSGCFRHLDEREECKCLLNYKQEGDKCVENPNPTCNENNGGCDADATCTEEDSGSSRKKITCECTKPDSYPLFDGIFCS

B1: VHHkappa: commercially available anti-mouse kappa chain VHH (nanobody clone TP1170), SEQ ID NO: 1 (protein)
VHH: QVQLVESGGGWVQPGGSLRLSCAASGFTFSDTAMMWVRQAPGKGREWVAAIDTGGGYTYYADSVKGRFTISRDNAKNTLYLQMNSLKPEDTARYYCAKTYSGNYYSNYTVANYGTTGRGTLVTVSSGG
In the case of B1, the “binding to mouse IgG2b (in words)” value in test [1] is reported as “nanomolar affinity”.

B2: Anti-p83 B4: VHH specific for P. falciparum MSP-1 p83, SEQ ID NO: 12 (protein)
VHH: QLQLVESGGGLAQAGGSLRLSCAASGRTSSTKPMGWFRQAPGLEREFVASISWLGGSTLYSDSVKGRFTISRDNAKNTVYLQMNSLKSEDTAVYYCAGGTSAYSGRDSSRYEYWGQGTQVTVSSLPETGGHHHHHH
Consider B2, for which the “binding to lysate from ˜38-44 hour 3D7 schizonts” value in test [2] was “observed to bind”. Besides, the “binding to MSP-1 subunits and pro-peptide p190 (gel electrophoresis / Western blot)” value in test [3] is “bind to one subunit of MSP-1 and to the MSP-1 pro-peptide (p190), but not to any other subunit”. The “binding to plate-bound MSP-1 subunits (ELISA)” value in test [4] is recorded as “bind specifically to one subunit”.
